The DeepSol protein solubility set

assay: soluble on expression in E. coli; label from the status in PepcDB or PDB records

Sequence | soluble on expression in E. coli
MHMSEANHKNIVVVGAGIIGTSVATMLSKVSPNWHIDMFERLEGAGIESSNENNNAGTGHAALCELNYTVEQDDGSIDASKAQEINEQFELSRQFWGNLVKNGDISNPEEFIQPLPHISFVMGPTNVNFLRKRYETLKTLPMFDTIEYTEDMETMRKWMPLMMENREPGHQMAASKIDEGTDVNYGALTRKLAHYLEQKSNVSLKYNHDVVDLTQREDGKWEVVVENRETKEKVTKIADKVFIGAGGHSIPLLQKSGVKQREHLGGFPISGQFLRCTNPDIIKQHAAKVYSKEPQGKPPMTVPHLDTRYINGKQTLLFGPYANIGPKFLKFGSNLDLFESIKPYNITTMLASAVKNVPLIKYSIDQMIKTKEGCMNYLRTFIPDAKDEDWELYTAGKRVQVIKDSEQHGKGFVVFGTEVVNSDDNSMIALLGESPGASTSLSVVLEVLEKNFADDKEAWEPVVKEMVPTYGRSLINDEKLMRETRRETSKNLHLNRMAGDPLEHHHHHH | soluble
MGSDKIHHHHHHMKGAAFVKKEGLKQKALEIGRVPTHLKLEIEDYGGDDKRAHFCWADPQDENTGIIVELGPDGELESLSRDIEPESGERLSEEKLEDIMRQFVETHHPGALSAFVREENDRAYGDKVRFSYVQMEAGLPLPMSGFMADVSLSGEIVYFRYYGEAGSIIKPKRVADVEEALAFIKKDVEFDLLFEVLHRSVYKNGDDQPHLVYEPEGRAITVPADLVQEEQAVDDDDDYREPESFPLPLFEGIREKADPDSMIGIENGFVKEREADLGDGRIGIVWRNPDDPVYQPADKSMDSWFKGRTHQVLKTIYNKETGKLEGVMSFMEKKGPLTVTLAECEKIALRFLFALFPNADQYFRIRYDEKDEEENAVAGFTFEAHCHGVPLRFGQIRICVSRQTGYITVYMGPDIDPNKLATIDPVPAISVEQAKSIFWQHFKVELGWEREYGDDEEHSYRLVYKPVYPHFIDAHTGEPVFSIW | not soluble
MAHHHHHHMGTLEAQTQGPGSMQMNMVETEPVQGCRDFPPETMRLRKYLFDVFHSTARKFGFEEYDSPVLESEELYIRKAGEEITEQMFNFITKGGHRVALRPEMTPSLARQLLAKGRSLLLPAKWYSIPQCWRYEAITRGRRREHYQWNMDIIGVKSVSSEVELVCAACTAMQSLGLSSKDVGVKINSRKILQTVVEQAGVSADKFAPVCVIVDKMEKLPREEVVAQLAAIGLESNVVDAITSTLSLKTIDEIAQRIGEEHEAVRELRDFITQIEAYGFGDWVIFDASVVRGLAYYTGIVFEGFDRDGNFRALCGGGRYDNLLTTYGSPTAVPCVGFGFGDCVIVELLNEKKLLPELHHVVDDLVIPFDETMRPHALSILRRLRDAGRSADIVFDKKKVVQAFNYADRIGALRAVLVAPDEWARGEVRVKMLREGAGREEGANERGIVLPVDKIV | soluble
MKQTTINHSVELVGIGLHKGVPVKLVLEPLGENQGIVFYRSDLGVNLPLKPENIVDTKMATVLGKDNARISTIEHLLSAVHAYGIDNLKISVDNEEIPIMDGSALTYCMLLDEAGIKELDAPKKVMEIKQAVEIRESDKFVKIEPDSQLSLNFTIDFNHPVIAKQAHHFVFSKTAYKEQVAKARTFGFLQEVNYLRSIGLAKGGSLNNCIVLDENSILNKEGLRCEKEFVCHKILDAMGDLMVLGMPVMGKYTSFSGSHKLNSMLVKAILADAKNYEVLIAADPAKEFALQKAFALEHHHHHH | not soluble
MYGVLVIGAPGAGKSTFCAGLTDIFSQTKRPFLTINLDPANDTMAYAPDVNITEMITVNDVMDRLGLGPNGALKYCIETLGANCNWLLQKIEANHKKYLIIDCPGQLELYKSEGELWKVIRFLEKSGVRLCALHLADSLYCSDPSKFISVALSTLATMVTMEMPQVNCLSKADLFSEDGTYDLEFFSHLPDVNRLLDLLNEVPGLEKYRKLNEAICGVISDFDLVSFVPLAVENKESMMKVIQMVDAANGFSLTEQGDIRELILNSKA | not soluble
AIAEHKEVVLLLLLFLKSGQGEPLDDYVNTQGPSLFSVTKKQLGAGSREECAAKCEEDKEFTCRAFQYHSKEQQCVIMAENRKSSIIIRMRDAVLFEK | soluble
MASRRKRRKVNEESEIPCSPVVIFAHGAGAPSSSDWMIRWKEMLKKTLEAVEVVTFDYPYLADGKKRVAPKAEKLIEFHLNVVKETAAKFPGHPLILVGKSMGSRVSCMVSAVNEDVTVSAVICLGYPLKGAKGAIRDETLLEMGVPVMFVQGSKDPMCPLNKLEAVCNKMKAVTEVHVIDGGDHSFKIGKKHLETKELTQEEVEDVAMKAIAAFVSKSLAQSS | soluble
MTMTLHTKASGMALLHQIQGNELEPLNRPQLKIPLERPLGEVYLDSSKPAVYNYPEGAAYEFNAAAAANAQVYGQTGLPYGPGSEAAAFGSNGLGGFPPLNSVSPSPLMLLHPPPQLSPFLQPHGQQVPYYLENEPSGYTVREAGPPAFYRPNSDNRRQGGRERLASTNDKGSMAMESAKETRYCAVCNDYASGYHYGVWSCEGCKAFFKRSIQGHNDYMCPATNQCTIDKNRRKSCQACRLRKCYEVGMMKGGIRKDRRGGRMLKHKRQRDDGEGRGEVGSAGDMRAANLWPSPLMIKRSKKNSLALSLTADQMVSALLDAEPPILYSEYDPTRPFSEASMMGLLTNLADRELVHMINWAKRVPGFVDLTLHDQVHLLECAWLEILMIGLVWRSMEHPVKLLFAPNLLLDRNQGKCVEGMVEIFDMLLATSSRFRMMNLQGEEFVCLKSIILLNSGVYTFLSSTLKSLEEKDHIHRVLDKITDTLIHLMAKAGLTLQQQHQRLAQLLLILSHIRHMSNKGMEHLYSMKCKNVVPLYDLLLEMLDAHRLHAPTSRGGASVEETDQSHLATAGSTSSHSLQKYYITGEAEGFPATV | soluble
MSLKEYTRPLEQGIDSDKNIFSVLEERVERTPDDNLVEYKNAQGEWAAFTAAEFKNKVVALAKGLIARGVMPGDSVSIIAHTCWQWTALDVAIMSIGALTVPVYETNSPAQVKMIFNDANVKMAFAEDDFQRDKIESVRDQCPDLGDVYVIGLGAIDTIIEYGRAVSDAEFLEREQAVKGSDLATIVYTSGSTGTPKGVELTHANFVFITYSGVNSMPDIAMKPNRRLLLFLPLAHVFARYMQFFCFAGNVSLGLSSNLKTILADFKAFKPTFILAVPRIFEKIYNAASQKAGAGFKGRVFADATQTACDWSHAQQSGGSIPLALNAKHALYNKLVYSSIMEVFGGHVEYAVSGGAPLDSSIAHFFNGVGLSLLEGYGMTETCAPSSVNPTEGYKIGTIGLPLQGVTMGVDEEGELCIKSPAVCAGYHNNPDVTKQQIVDGWLHTGDLGSIDDDGFVSIVGRKKDLIITAGGKNVSPCEMEASIMTSPVVSQCVMIGDRKPFIAAIISLDLAETNLWLESKGAEQVADLDEASKNPIVRAEVERAVNKANELASRAESIRKFEIVPDEFTEENGLVTPSMKARRQAVVEHYRTLIDKVIYVPRKPAAHAEEGHHHHHH | soluble
MGSDKIHHHHHHMRVIPPIKSIIYFEAAARLQSFKLAAMELNVTPGAISHQISTLEDFIGKKVFERGSRRVTLTYCGLRYYSRISIILQNMEEATVDLGIEGSKPKIKIAIPPSLLKNWLLPRLVDDKLKDLNRSVEFIDTLDYLEFSKCDLDLAIRYGYDSWDNLYSVFLFHEEMIPVCHPNYFISEFTDFTQEIIDNHTLIFTNNRLVQWDIVMQYFGLERKSTQSKLIFQNSIQAIEAAIQGAGIAYVNRILVSKELSNGRLIQPFDIYMPKHKSPAYHLVSTYEHMQDEATFKLYQTILEFAKSTPHQHIVNAQAKQNAWLEHAV | not soluble
MSLSRAFLVAAPSSGSGKTTITLGLLRLFARRGMAVQPFKCGPDYLDTMLHAMAASTGETARPGLNLDTFMASKEHVRSLFARNAASADISVIEGVMGLFDGAEKSDGSSAEIAALLGLPVIMVIDGSKIAYSAAPILYGFKHFDPSVKVAGVIFNRVGSASHYSHLEAAAKDVGVEPLGYLPRNSDITISERHLGLNTSAEYDREKLIDAMAEHIEKTVNIERLLDVARIELPEIEQAQPVTKKLDKVIAVARDEAFNFIYHDNLETLKRYGEVRFFSPLHDRELPKADLVYLAGGYPELHAEALAANKTMRKAIAEWCRNRGATWAECGGLMYLGKTLTLADGAAHPMCGVLDLDTTMQEARLTLGYRKVYPAGADGVELRGHEFHYSRIWRQGEIDTIAEIRNARGQQVGTKLFRVGNTIASYLHLYWGEHDYLANWFDVLREGHHHHHH | soluble
MSLSKKPCAHIDCELEGGFERSIWIPVRVARLYVKNRPDLPCDWDNFREAVQLIERQCALTMVTEMLSRRDHATGEVCDKLARYGFHQPAIDFAVERATEYHFLDENRFCSYFIEERKRRGWGQRKIETELKRRHVVLDDIPGYPEDYFAVEDDLARASALLAKRRVPETRGFEKLVRFLMGKGFSYHIAADAVKARLDAEREEGHHHHHH | not soluble
SGRVQLFEISLSHGRVVYSPGEPLAGTVRVRLGAPLPFRAIRVTCIGSCGVSNKANDTAWVVEEGYFNSSLSLADKGSLPAGEHSFPFQFLLPATAPTSFEGPFGKIVHQVRAAIHTPRFSKDHKCSLVFYILSPLNLNSIPDIEQPNVASATKKFSYKLVKTGSVVLTASTDLRGYVVGQALQLHADVENQSGKDTSPVVASLLQKVSYKAKRWIHDVRTIAEVEGAGVKAWRRAQWHEQILVPALPQSALPGCSLIHIDYYLQVSLKAPEATVTLPVFIGNIAVNHAPVSPRPGLGLPPGAPPLVVPSAPPQEEAEAEAAAGGPHFLDPVFLSTKSHSQRQPLLATLSSVPGAPEPCPQDGSPASHPLHPPLCISTGATVPYFAEGSGGPVPTTSTLILPPEYSSWGYPYEAPPSYEQSCGGVEPSLTPES | soluble
MGSDKIHHHHHHMSDVDTHPIDRGAGGHNPQKPIRVAQIVGKMVGGGVEAVVMNYYRHIDRSKVQFDFLVDEDSTRVPEEEITSLGGRVFRIPPYQHPIRYRRELIRLMREQQWPIVHSNINTLSVFPLSAAKKVGVPVRIAHSHSTMGKGEFAKNVMKLVLRPFANVYPTVRFACSRYAGKWLFGKNADFTVIPNAIELDKFRFNTEMRKQTRKELGISDDTFLIGHVGRFMPQKNQTFLVDVLAGLLPKRPDAMLAFVGDGPDRTAVQQHVEELGMADHVLFLGQRSDVNRLYQAFDAFCLPSLYEGLGIVAVEAQVADLPCLLSDVVPSEADVTASSYFLQITDVKPWIETLSNLHSSKRSDQISGDIEEYDIQRCANSLVKKYESFICK | not soluble
MSNRNLRSSTNSEFSEGQHQTPSSDSSGHGEDQPQASPGPNKKSHTPKKNISKGAVLHEKPMTVMVLTATEPFNYKEGKENMFHATVATESKYYRVKVFNMDLKEKFTENQFITISKYFNSSGILEINETATVSEAAPNQMFEVPKNIIRSAKETLKISKIKELDSGTLIYGVFAVEKKKVNDKSITFKIKDNEDNIKVVWDKEQHNINYEKGDKLQLFSFHLRKGNGKPILHSGNHSFIKGEKLLKESFEGDGYHKGPKQVVALKATKLFTYDSIKSKKMFHATVATDTEFFRVMVFEENLEKKFIPGNTIALSDYFGMYGSLAIHEYSSVSEVKSQNKEDSSSSDERPIEHLKICDLHLQTEERLVDGEFKVYRKSSGNNCICYGIWDDTGAMKVVVSGQLTSVNCEIGNTIRLVCFELTSNADEWFLRATRYSYMEVIMPEK | not soluble
GMTTSEHIAALTALVETYVMAMTRGDRPALERIFFGKASEVGHYEGELLWNSRDAFIAMCEDAADAETDPFWAISSVSVQGDIAMLHVENDWAGMRFDDFLTVLLHEGSWRIVSKVYRIR | soluble
MGRYKDETPAVRVYTVCDESRYMIVRNVPALGCGDDLMRLFMTYGEVEEFAKRKLDESSFLGNRLQISYAPEYENVNDTKDKLESRRKEVLARLNPQKEKSTSQVTKLAGPALTQTDNVSSQRREMEYQFHRGNAPVTRVSSDQEYFASSSMNQTVKTVREKLNKTREENISSLSHCKQIEESGNQKRLQPSSQTQPEESGNQKRLQPSSQIQPDLKRTRVDNRRRI | not soluble
MQHLEAVRNILGDVLNLGERKHTLTASSVLLGNIPELDSMAVVNVITALEEYFDFSVDDDEISAQTFETLGSLALFVEHKLSH | soluble
